Target: Meiothermus taiwanensis LonA (Lon AAA+ protease), wild type, full length (Meiothermus taiwanensis)
Assay: cryo-EM structure

- stoichiometry N: 6
Substance: Meiothermus taiwanensis LonA (Lon AAA+ protease), wild type, full length (enzyme)

— article doi:10.1101/2020.04.29.068361
